Laboratory results reported in article PMC9708791.

Molecular target: PER2 (V5-Per2) (UniProt O15055)
Assay: co-immunoprecipitation of V5-Per2 and HA-GSK3β
Conditions: reference: wild-type HA-GSK3β; sites S9

With “GSK3β (HA-tagged, Addgene plasmid) (from UniProt P49841) HA-GSK3β S9A” the “binding against the reference” value was “lost”.
